We go through eleven molecules from patent publication US20230242675A1 (SHANGHAI EPIMAB BIOTHERAPEUTICS, published 2023).

B1: HuEM0005-86-4 (antibody, human IgG1, V domains shown)
VH: EVQLVQSGAEVKKPGASVKVSCKASGYTFTTYGINWVRQAPGQGLEWIGYIYIGNGYTEYNEKFKGRVTLTSDTSTSTAYMELSSLRSDDTAVYYCARDLMVIAPKTMDYWGQGTTVTVSS
VL: DIQMTQSPSSVSASVGDRVTITCKASQDVGTAVAWYQQKPGKAPKLLIYWASTRHTGVPDRFTGSGSGTDFTLTISSLQPEDFATYYCQQYSSYPYTFGGGTKVEIK
B2: HuEM0005-86-6 (antibody, human IgG1, V domains shown)
VH: B1 VH with A24T, R67K, V68A, T74P, S77R
VL: B1 VL
notes: measured without the G55A change
B3: HuEM0005-86-3 (antibody, human IgG1, V domains shown)
VH: B1 VH with I48M
VL: B1 VL
B4: HuEM0005-86-1 (antibody, human IgG1, V domains shown)
VH: B1 VH with I48M, L70M, S72T
VL: B1 VL
B5: HuEM0005-86-2 (antibody, human IgG1, V domains shown)
VH: B1 VH with I48M, L70M
VL: B1 VL
B6: HuEM0005-86-12 (antibody, human IgG1, V domains shown)
VH: B1 VH with R67K, V68A
VL: B1 VL with A43S, Y87F
B7: HuEM0005-86-11 (antibody, human IgG1, V domains shown)
VH: B1 VH
VL: B1 VL with A43S, Y87F
B8: HuEM0005-86-8 (antibody, human IgG1, V domains shown)
VH: B1 VH with I48M, L70M, S72T
VL: B1 VL with A43S, Y87F
B9: HuEM0005-86-9 (antibody, human IgG1, V domains shown)
VH: B1 VH with I48M, L70M
VL: B1 VL with A43S, Y87F
B10: HuEM0005-86-7 (antibody, human IgG1, V domains shown)
VH: B1 VH with T74P, S77R
VL: B1 VL
B11: HuEM0005-86-10 (antibody, human IgG1, V domains shown)
VH: B1 VH with I48M
VL: B1 VL with A43S, Y87F

Residue numbers refer to the chain shown, from its start. Numbers in names are those of the source.

T1 sequence (Q9NZQ7 19-239 limits assumed): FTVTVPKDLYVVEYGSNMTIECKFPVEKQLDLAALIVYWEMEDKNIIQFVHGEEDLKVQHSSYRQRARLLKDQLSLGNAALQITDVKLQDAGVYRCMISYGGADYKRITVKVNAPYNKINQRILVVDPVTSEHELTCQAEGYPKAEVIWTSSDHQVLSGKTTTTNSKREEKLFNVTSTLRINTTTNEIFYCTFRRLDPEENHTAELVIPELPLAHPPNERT

One test addresses T1, human PD-L1/His fusion protein (human, UniProt Q9NZQ7 19-239). As to the kind of experiment: BLI off-rate; test group 1. As to the method:
(§1) All 15 antibodies in Table 13 were assayed for and ranked by dissociation rate constant (koff). […] Briefly, antibodies were characterized for affinities and binding kinetics by Octet®RED96 biolayer interferometry (Pall ForteBio LLC). Antibodies were captured by Anti-hIgG Fc Capture (AHC) Biosensors (Pall) at a concentration of 100 nM for 30 seconds. Sensors were then dipped into running buffer (1×pH 7.2 PBS, 0.05% Tween 20, 0.1% BSA) for 60 seconds to check the baseline. Binding was measured by dipping sensors into a single concentration of recombinant human PD-L1/His fusion protein (Novoprotein). Dissociation was followed by dipping sensors into running buffer for 1200 seconds. The association and dissociation curves were fitted to a 1:1 Langmuir binding model using ForteBio Data Analysis software (Pall). […] The off-rate ratio serves as a data normalization. Accordingly, in each test group, the off-rate ratios of the humanized antibodies can be compared with that of the chimeric antibody, and the off-rate ratios of each of the humanized antibodies can be compared to one another within all test groups.
As for B1, the “Off-Rate Ratio to that of EM0005-86c” value stood at 78%.
Same read-out and setting: the figure for B2 is 99%; for B3 it is 115%; for B4 it is 120%.
The same measure, in the same setting: the figure for B5 is 72%.

The target of the next test is T1, human PD-L1/His fusion protein. As to the kind of experiment: BLI off-rate; test group 2. As to the method:
as §1
B6: the “Off-Rate Ratio to that of EM0005-86c” value is 84%.
For B7, the “Off-Rate Ratio to that of EM0005-86c” value came out at 73%.
Still for that read-out and setting: for B8 the value was 87%; for B9, 89%; for B10, 73%.
For the molecule B11, the “Off-Rate Ratio to that of EM0005-86c” value came to 88%.

Another test shares this target. In words: BLI Octet RED96, antibody on AHC sensor, single conc. PD-L1/His; test group 1. As to the method: as §1
In general terms: In BLI a coated tip is dipped into the sample, and binding shifts an interference pattern.
The molecule B1 displayed an off-rate (koff) of 0.000957 s⁻¹.
With B2, the off-rate (koff) was 0.00122 s⁻¹.
B3 had a koff of 0.00142 s⁻¹.
Consider B4, for which the koff is 0.00147 s⁻¹.
The same measure, in the same setting: the figure for B5 is 0.000887 s⁻¹.

The next test shares this target. As to the kind of experiment: BLI Octet RED96, antibody on AHC sensor, single conc. PD-L1/His; test group 2. As to the method:
as §1
B6 came in with an off-rate (koff) of 0.0015 s⁻¹.
As to B7, the koff stood at 0.00131 s⁻¹.
On the same count and under the same terms, for B8 the value was 0.00155 s⁻¹; for B9, 0.0016 s⁻¹.
The same measure, in the same setting: for B10 the value was 0.00131 s⁻¹; for B11, 0.00157 s⁻¹.

The term koff denotes a measure of how fast the partners let go of each other. A low value points to slow dissociation.
